Assay results published in US9176064B2, “Bisubstrate fluorescent probes for protein kinase CK2” (University of Tartu, priority 2012, dated 2015).
Where a SMILES comes first, the peptide text is derived from it. [ ]: non-standard residue; d: D form. The star is where a group is joined. X1 = O=C(CCCCCCCn1cnc2c(Br)c(Br)c(Br)c(Br)c21)*

Assays:
Assay in all cases: Kinase panel residual activity
Type in all cases: biochemical
Settings in all cases: compound at 1 micromolar
[1] = biological target: PKA (Homo sapiens, UniProt P17612)
[2] = biological target: MLK1 (Homo sapiens, UniProt P80192)
Chain of MLK1 (P80192 whole entry, species assumed): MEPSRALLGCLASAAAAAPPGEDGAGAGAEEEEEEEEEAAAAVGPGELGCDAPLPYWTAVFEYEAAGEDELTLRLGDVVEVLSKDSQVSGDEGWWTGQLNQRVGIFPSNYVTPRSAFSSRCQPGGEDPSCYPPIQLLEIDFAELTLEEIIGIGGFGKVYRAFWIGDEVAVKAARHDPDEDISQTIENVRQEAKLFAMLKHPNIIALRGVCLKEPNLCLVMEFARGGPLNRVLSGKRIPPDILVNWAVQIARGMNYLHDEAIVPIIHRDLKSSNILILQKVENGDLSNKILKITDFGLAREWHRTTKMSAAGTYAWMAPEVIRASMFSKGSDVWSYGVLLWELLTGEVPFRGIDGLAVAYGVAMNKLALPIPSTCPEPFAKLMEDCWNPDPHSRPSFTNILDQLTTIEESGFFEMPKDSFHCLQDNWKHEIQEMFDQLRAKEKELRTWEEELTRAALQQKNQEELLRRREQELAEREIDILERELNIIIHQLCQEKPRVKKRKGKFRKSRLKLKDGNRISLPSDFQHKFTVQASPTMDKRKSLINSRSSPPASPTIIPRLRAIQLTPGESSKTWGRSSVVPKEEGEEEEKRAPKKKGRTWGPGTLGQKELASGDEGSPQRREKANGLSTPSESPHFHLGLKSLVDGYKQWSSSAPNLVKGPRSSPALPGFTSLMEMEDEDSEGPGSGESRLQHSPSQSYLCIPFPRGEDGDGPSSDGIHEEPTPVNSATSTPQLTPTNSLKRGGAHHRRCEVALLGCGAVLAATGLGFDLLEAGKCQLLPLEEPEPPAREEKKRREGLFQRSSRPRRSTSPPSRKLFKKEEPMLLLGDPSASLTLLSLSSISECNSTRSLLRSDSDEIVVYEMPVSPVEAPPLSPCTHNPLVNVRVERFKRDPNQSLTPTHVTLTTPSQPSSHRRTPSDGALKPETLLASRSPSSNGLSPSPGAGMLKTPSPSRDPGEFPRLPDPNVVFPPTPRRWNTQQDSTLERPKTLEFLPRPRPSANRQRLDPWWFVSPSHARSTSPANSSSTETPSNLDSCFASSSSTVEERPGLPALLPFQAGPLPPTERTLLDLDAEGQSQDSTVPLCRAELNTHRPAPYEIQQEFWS

[3] = biological target: CAMKKb (Homo sapiens, UniProt Q96RR4)
Chain of CAMKKb (Q96RR4 whole entry, species assumed): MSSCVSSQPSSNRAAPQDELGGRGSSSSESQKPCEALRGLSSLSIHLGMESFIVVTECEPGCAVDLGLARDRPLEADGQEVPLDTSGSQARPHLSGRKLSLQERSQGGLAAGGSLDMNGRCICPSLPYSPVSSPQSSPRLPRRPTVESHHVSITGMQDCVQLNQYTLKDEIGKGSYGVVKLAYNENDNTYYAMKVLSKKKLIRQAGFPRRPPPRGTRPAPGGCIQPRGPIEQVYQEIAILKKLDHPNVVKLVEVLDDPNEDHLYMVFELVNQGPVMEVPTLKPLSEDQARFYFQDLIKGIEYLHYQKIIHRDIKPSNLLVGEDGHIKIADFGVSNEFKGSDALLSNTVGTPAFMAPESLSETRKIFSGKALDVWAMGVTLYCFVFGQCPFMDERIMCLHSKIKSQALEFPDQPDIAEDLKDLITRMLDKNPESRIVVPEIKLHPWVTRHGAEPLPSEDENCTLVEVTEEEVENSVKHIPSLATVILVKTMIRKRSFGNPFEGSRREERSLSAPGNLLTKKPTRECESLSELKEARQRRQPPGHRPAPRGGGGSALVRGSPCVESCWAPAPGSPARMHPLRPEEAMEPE

[4] = biological target: T1, EPH-B3 (Homo sapiens, UniProt P54753)
T1 sequence (P54753 34-998): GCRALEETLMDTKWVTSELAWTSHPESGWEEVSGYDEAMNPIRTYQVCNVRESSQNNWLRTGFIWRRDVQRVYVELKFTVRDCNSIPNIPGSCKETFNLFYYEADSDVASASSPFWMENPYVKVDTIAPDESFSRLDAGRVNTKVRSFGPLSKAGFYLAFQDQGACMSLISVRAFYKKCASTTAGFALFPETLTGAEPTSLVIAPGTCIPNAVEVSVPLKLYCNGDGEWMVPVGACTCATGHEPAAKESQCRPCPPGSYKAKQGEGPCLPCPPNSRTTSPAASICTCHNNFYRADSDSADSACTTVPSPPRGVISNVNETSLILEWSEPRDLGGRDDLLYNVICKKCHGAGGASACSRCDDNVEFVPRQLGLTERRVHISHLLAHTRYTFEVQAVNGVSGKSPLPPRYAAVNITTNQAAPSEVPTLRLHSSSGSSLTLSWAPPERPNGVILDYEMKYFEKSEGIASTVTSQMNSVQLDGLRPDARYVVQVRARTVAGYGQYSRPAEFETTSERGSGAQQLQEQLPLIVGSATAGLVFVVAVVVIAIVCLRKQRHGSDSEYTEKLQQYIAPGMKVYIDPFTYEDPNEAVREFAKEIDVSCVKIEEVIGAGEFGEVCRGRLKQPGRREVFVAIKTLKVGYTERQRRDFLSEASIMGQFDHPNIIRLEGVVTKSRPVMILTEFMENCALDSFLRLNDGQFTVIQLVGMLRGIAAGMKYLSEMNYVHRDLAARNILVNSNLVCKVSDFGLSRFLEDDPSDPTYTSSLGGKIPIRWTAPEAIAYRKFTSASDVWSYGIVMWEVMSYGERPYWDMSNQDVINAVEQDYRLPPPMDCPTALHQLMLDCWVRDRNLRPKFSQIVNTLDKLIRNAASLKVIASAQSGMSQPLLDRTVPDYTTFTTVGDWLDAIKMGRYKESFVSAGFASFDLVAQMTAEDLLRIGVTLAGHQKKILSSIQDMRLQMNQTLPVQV

[5] = biological target: BRK (Homo sapiens, UniProt Q13882)
Chain of BRK (Q13882 whole entry, species assumed): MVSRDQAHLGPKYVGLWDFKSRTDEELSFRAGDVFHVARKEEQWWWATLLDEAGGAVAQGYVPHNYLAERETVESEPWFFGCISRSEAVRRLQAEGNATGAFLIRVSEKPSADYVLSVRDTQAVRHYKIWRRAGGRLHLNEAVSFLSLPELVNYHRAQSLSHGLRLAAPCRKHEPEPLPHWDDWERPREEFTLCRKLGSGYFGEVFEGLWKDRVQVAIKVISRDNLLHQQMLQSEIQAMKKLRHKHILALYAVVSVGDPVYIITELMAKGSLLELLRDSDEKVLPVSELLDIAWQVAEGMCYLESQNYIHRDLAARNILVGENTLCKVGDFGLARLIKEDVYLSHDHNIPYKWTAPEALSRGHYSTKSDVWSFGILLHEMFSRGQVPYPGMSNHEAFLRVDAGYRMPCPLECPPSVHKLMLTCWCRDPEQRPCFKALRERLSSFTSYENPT

[6] = biological target: PIM2 (Homo sapiens, UniProt Q9P1W9)
Chain of PIM2 (Q9P1W9 whole entry, species assumed): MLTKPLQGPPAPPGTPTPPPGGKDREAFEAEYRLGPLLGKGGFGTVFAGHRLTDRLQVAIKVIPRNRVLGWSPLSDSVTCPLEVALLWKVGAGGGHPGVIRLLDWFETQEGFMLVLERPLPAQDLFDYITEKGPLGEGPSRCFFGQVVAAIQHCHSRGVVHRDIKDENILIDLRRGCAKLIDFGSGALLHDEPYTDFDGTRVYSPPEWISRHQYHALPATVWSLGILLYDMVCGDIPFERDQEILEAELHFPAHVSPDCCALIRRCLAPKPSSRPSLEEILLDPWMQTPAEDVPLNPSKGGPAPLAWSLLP

[7] = biological target: MARK3 (Homo sapiens, UniProt P27448)
Chain of MARK3 (P27448 whole entry, species assumed): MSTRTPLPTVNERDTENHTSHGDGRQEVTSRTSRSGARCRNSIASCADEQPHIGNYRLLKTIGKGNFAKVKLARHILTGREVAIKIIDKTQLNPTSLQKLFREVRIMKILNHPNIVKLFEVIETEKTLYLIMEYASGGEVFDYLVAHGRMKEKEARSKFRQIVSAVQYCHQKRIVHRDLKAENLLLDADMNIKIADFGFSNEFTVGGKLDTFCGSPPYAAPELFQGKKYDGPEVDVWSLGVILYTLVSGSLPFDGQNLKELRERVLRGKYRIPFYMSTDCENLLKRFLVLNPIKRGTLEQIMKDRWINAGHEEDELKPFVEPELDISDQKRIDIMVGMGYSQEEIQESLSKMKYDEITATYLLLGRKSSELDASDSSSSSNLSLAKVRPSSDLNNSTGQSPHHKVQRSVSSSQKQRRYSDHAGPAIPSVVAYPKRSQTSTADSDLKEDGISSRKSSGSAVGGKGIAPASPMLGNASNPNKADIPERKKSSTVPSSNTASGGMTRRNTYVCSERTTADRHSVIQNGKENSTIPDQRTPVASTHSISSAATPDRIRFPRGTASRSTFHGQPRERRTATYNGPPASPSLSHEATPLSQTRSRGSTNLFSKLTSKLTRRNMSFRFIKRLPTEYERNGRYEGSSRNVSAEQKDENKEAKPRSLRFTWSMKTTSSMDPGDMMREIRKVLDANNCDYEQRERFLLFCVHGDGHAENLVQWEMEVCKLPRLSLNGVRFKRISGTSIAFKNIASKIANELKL

[8] = biological target: BTK (Homo sapiens, UniProt Q06187)
Chain of BTK (Q06187 whole entry, species assumed): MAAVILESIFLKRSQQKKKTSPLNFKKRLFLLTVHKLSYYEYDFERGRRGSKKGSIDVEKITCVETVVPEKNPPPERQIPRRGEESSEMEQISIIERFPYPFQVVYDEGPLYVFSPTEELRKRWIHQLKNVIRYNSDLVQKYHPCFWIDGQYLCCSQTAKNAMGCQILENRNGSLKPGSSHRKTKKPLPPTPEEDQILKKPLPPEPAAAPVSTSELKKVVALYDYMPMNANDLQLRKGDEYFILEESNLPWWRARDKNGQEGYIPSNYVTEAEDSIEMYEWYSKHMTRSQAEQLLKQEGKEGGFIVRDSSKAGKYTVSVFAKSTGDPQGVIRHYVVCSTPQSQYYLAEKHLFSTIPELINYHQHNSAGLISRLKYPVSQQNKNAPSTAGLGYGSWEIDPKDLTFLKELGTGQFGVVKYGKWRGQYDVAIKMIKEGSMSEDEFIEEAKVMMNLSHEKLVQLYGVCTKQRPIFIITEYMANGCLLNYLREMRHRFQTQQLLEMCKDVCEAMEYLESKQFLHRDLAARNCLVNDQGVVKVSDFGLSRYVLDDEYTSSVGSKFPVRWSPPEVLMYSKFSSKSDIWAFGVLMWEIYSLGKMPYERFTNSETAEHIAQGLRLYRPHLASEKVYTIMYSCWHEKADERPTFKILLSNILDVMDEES

[9] = biological target: CK1γ2 (Homo sapiens, UniProt P78368)
Chain of CK1γ2 (P78368 whole entry): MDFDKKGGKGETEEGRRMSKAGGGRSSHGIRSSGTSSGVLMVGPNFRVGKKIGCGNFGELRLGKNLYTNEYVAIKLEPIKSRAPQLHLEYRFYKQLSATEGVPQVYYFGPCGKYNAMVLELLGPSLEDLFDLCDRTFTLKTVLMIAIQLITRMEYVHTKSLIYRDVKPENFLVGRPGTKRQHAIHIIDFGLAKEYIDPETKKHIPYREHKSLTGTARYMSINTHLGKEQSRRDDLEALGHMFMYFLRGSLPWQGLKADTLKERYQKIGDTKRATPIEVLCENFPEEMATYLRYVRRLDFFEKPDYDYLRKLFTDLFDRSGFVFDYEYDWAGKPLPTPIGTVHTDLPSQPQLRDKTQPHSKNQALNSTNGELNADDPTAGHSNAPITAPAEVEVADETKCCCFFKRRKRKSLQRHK

[10] = biological target: T2, PDK1 (Homo sapiens, UniProt O15530)
T2 sequence (O15530 1-556): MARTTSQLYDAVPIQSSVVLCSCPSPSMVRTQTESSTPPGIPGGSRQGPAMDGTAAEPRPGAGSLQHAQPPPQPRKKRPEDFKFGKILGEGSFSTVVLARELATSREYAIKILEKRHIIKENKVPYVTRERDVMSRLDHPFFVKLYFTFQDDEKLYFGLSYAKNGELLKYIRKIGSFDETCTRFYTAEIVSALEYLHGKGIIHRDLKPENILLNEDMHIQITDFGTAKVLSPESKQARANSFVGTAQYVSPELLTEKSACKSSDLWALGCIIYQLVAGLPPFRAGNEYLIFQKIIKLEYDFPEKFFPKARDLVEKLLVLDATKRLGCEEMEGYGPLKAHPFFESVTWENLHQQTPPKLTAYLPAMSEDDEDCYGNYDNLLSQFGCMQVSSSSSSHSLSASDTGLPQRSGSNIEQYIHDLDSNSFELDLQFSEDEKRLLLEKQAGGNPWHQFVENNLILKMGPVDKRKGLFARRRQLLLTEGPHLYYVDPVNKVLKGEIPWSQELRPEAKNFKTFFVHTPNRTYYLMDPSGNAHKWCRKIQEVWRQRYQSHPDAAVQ

[11] = biological target: MAPKAP-K2 (Homo sapiens, UniProt P49137)
Chain of MAPKAP-K2 (P49137 whole entry, species assumed): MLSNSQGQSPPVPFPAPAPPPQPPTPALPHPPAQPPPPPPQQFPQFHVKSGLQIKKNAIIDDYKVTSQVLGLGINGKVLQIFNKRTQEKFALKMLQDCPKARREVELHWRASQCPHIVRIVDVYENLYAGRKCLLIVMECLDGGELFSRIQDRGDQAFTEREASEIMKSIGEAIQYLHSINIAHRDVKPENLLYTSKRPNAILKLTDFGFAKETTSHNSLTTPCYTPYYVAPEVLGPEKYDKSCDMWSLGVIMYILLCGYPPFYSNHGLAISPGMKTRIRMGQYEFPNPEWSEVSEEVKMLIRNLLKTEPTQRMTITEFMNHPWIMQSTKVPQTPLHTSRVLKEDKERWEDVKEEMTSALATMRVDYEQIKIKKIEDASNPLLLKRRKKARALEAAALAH

[12] = biological target: Aurora B (Homo sapiens, UniProt Q96GD4)
Chain of Aurora B (Q96GD4 whole entry): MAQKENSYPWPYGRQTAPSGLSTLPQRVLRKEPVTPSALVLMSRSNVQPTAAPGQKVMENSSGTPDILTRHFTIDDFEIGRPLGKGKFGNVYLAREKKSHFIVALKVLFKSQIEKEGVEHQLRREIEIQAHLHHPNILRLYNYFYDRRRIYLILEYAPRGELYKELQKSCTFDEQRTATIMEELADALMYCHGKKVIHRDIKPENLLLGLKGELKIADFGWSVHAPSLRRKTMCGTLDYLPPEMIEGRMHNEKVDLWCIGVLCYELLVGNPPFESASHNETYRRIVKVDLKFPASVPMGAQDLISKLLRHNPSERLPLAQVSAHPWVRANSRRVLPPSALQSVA

[13] = biological target: T3, p38g MAPK (Homo sapiens, UniProt P53778)
T3 sequence (P53778 1-367): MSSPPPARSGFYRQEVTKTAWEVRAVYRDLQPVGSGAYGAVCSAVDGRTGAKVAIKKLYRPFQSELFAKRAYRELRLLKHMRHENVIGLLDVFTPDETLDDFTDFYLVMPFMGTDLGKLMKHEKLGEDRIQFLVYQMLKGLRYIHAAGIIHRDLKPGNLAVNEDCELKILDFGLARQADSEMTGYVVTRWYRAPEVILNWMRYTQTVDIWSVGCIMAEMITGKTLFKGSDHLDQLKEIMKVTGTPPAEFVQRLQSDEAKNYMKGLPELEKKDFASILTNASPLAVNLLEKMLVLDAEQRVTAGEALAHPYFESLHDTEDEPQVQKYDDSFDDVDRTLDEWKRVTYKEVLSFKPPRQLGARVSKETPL

NCCCC[C@H](NC(=O)[C@H](CC(=O)O)NC(=O)[C@H](CC(=O)O)NC(=O)[C@H](CC(=O)O)NC(=O)[C@H](CC(=O)O)NC(=O)[C@H](CC(=O)O)NC(=O)[C@@H](CC(=O)O)NC(=O)CCCCCCCn1cnc2c(Br)c(Br)c(Br)c(Br)c21)C(=O)O [TBBI-OcA-(D-Asp)-(L-Asp)5-(L-Lys)-OH] (X1-[dD]DDDDDK-OH)
remaining activity at 1 µM [1]: 100%
remaining activity at 1 µM [2]: 112%
remaining activity at 1 µM [3]: 91%
remaining activity at 1 µM [4]: 98%
remaining activity at 1 µM [5]: 113%
remaining activity at 1 µM [6]: 92%
remaining activity at 1 µM [7]: 73%
remaining activity at 1 µM [8]: 80%
remaining activity at 1 µM [9]: 71%
remaining activity at 1 µM [10]: 86%
remaining activity at 1 µM [11]: 89%
remaining activity at 1 µM [12]: 100%
remaining activity at 1 µM [13]: 97%
